These results are taken from PMC7308368, “Structure of the polymerase ε holoenzyme and atomic model of the leading strand replisome” (Nature Communications, 2020).

B3: Dpb3 subunit of S. cerevisiae DNA polymerase ε holoenzyme (natural protein)
chain: MSNLVKEKAPVFPISKVKKIAKCDPEYVITSNVAISATAFAAELFVQNLVEESLVLAQLNSKGKTSLRLSLNSIEECVEKRDNFRFLEDAIKQLKKNSALDKKRELNMQPGRSDQEVVIEEPELHEDDGVEEEEEEDEVSEEEEPVHNEELLDDSKDQQNDKSTRSVASLLSRFQYKSALDVGEHSDSSDIEVDHTKSTDP
notes: DNA polymerase epsilon subunit C Dpb3, S. cerevisiae; histone fold domain and C-terminal region; The holoenzyme was purified on anti-Flag resin; source: yeast, subunit genes integrated under the Gal1/10 promotor, galactose-induced; purified as holoenzyme (anti-Flag resin, MonoS)

The target in assay [1] is T1, Pol2 subunit of S. cerevisiae DNA polymerase ε holoenzyme (S. cerevisiae, UniProt P21951 1-2222).
T1 construct: DNA polymerase epsilon catalytic subunit Pol2, S. cerevisiae; 2222-residue polypeptide with catalytic NTD, NTD-CTD linker (Thr-1186 to Ser-1308) and non-catalytic CTD; The holoenzyme was purified on anti-Flag resin; source: yeast, subunit genes integrated under the Gal1/10 promotor, galactose-induced; purified as holoenzyme (anti-Flag resin, MonoS)
T1 sequence (P21951 whole entry): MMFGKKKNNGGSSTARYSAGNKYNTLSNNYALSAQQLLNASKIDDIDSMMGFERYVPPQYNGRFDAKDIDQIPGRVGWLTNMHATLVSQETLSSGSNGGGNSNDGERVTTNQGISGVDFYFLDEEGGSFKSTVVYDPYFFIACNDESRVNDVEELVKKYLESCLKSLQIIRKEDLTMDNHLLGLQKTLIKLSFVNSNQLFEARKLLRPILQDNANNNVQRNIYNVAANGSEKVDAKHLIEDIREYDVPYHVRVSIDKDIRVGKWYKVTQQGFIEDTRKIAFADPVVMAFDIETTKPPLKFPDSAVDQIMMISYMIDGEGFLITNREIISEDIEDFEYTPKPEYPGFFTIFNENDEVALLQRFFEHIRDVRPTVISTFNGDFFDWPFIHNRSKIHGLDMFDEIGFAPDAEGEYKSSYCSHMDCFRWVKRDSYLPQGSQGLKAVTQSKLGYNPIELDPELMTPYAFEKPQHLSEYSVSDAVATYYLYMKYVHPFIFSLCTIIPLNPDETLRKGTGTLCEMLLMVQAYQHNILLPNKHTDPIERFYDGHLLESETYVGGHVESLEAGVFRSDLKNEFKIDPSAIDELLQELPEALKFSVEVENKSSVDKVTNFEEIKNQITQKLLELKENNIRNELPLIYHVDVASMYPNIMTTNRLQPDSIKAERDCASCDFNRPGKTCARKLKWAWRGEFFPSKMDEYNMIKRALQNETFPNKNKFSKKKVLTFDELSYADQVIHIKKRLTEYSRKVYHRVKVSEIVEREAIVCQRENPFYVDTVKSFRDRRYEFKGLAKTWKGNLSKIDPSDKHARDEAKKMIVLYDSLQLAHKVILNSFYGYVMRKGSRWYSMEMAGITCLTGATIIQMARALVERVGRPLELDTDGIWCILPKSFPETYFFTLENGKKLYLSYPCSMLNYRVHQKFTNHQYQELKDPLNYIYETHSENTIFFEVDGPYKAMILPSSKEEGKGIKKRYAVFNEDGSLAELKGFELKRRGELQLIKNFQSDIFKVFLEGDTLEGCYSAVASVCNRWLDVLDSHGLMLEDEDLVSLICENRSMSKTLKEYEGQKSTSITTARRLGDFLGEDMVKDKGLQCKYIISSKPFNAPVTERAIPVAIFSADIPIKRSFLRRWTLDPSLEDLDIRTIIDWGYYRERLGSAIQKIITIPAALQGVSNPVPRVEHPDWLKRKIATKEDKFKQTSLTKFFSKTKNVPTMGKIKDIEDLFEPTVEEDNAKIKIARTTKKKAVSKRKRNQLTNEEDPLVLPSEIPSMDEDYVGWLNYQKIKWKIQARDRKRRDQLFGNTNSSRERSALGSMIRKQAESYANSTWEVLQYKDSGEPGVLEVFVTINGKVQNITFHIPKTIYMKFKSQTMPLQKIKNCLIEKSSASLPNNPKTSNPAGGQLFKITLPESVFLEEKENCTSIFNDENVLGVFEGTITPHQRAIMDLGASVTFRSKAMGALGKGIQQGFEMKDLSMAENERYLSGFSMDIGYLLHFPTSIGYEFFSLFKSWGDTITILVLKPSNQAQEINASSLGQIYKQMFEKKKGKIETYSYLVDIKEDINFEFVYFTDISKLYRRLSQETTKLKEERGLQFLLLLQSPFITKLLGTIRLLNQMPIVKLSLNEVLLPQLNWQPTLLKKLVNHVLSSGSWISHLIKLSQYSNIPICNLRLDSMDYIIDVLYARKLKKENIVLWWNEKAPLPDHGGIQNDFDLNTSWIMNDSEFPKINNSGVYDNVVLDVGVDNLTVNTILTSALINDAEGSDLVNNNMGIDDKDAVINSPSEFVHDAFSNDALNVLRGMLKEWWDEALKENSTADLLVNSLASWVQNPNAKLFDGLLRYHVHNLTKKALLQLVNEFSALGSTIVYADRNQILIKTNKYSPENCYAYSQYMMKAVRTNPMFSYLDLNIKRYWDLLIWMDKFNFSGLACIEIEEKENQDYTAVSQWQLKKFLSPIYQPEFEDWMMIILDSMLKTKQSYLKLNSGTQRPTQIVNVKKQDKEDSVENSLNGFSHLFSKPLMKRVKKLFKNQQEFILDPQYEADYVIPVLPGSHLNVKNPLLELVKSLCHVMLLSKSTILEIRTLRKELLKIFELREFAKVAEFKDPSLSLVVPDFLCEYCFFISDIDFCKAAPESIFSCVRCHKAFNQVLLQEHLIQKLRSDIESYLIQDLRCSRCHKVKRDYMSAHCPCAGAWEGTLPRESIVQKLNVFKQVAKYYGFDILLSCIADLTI
Kind of assay: cryo-EM structure; recombinant Pol ε holoenzyme at ~1.6 mg/ml on C-flat holey carbon grids; rigid-state particles selected; 3.5 Å map; sample buffer 50 mM Hepes pH 7.5, 50 mM KGlu, 200 mM KAcetate, 1 mM DTT, 4 mM MgCl2. The following applies: both partners purified.

Assay [2] addresses B3. The description is as above. The following applies: both partners purified.

B1: Dpb2 subunit of S. cerevisiae DNA polymerase ε holoenzyme (natural protein)
chain: MFGSGNVLPVKIQPPLLRPLAYRVLSRKYGLSIKSDGLSALAEFVGTNIGANWRQGPATIKFLEQFAAVWKQQERGLFIDQSGVKEVIQEMKEREKVEWSHEHPIQHEENILGRTDDDENNSDDEMPIAADSSLQNVSLSSPMRQPTERDEYKQPFKPESSKALDWRDYFKVINASQQQRFSYNPHKMQFIFVPNKKQNGLGGIAGFLPDIEDKVQMFLTRYYLTNDRVMRNENFQNSDMFNPLSSMVSLQNELSNTNRQQQSSSMSITPIKNLLGRDAQNFLLLGLLNKNFKGNWSLEDPSGSVEIDISQTIPTQGHYYVPGCMVLVEGIYYSVGNKFHVTSMTLPPGERREITLETIGNLDLLGIHGISNNNFIARLDKDLKIRLHLLEKELTDHKFVILGANLFLDDLKIMTALSKILQKLNDDPPTLLIWQGSFTSVPVFASMSSRNISSSTQFKNNFDALATLLSRFDNLTENTTMIFIPGPNDLWGSMVSLGASGTLPQDPIPSAFTKKINKVCKNVVWSSNPTRIAYLSQEIVIFRDDLSGRFKRHRLEFPFNESEDVYTENDNMMSKDTDIVPIDELVKEPDQLPQKVQETRKLVKTILDQGHLSPFLDSLRPISWDLDHTLTLCPIPSTMVLCDTTSAQFDLTYNGCKVINPGSFIHNRRARYMEYVPSSKKTIQEEIYI
notes: DNA polymerase epsilon subunit B Dpb2, S. cerevisiae; N-terminal helical domain (8-94, disordered), PDE domain (168-209 and 349-689), OB domain (210-348); The holoenzyme was purified on anti-Flag resin; also called Dbp2; B subunit; source: yeast, subunit genes integrated under the Gal1/10 promotor, galactose-induced; purified as holoenzyme (anti-Flag resin, MonoS)
As to B1, the binding result in assay [1] is recorded as “binds”.

B2: Dpb4 subunit of S. cerevisiae DNA polymerase ε holoenzyme (natural protein)
chain: MPPKGWRKDAQGNYPTTSYIKEQENITIQDLLFPKSTIVNLAREVPQQSGKKLLINKDASLALQRGATVFVNHLLLFAREIAKSQDKKSCSVDDVLSALDHIGHSALKGPVRDKLDEYQAAVEQRKKEKLDSGEVDADGDIDMGEDKENVPVEKVKEHDEIEEQGDALQDVEESSEKKQKTESQDVETRVQNLEQT
notes: DNA polymerase epsilon subunit D Dpb4, S. cerevisiae; histone fold domain and C-terminal region; The holoenzyme was purified on anti-Flag resin; also called Dbp4; source: yeast, subunit genes integrated under the Gal1/10 promotor, galactose-induced; purified as holoenzyme (anti-Flag resin, MonoS)
For B2, the binding result in assay [1] and in assay [2] was “binds” each time. For B3, the binding result in assay [1] was “binds”.
